System: MS2 coat protein
Assay: apparent KD of MS2 coat protein; designed switch direction (-1 OFF switch, 1 ON switch): -1; higher = weaker reporter binding
Summary of the method: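 Normalised cluster fluorescence was curve-fitted, and each design's median over clusters is its apparent KD. Before this, SNAP-549-labelled MS2 coat protein was titrated from 0.7 or 1.5 nM, doubling to 3 µM, over RNA switches transcribed on Illumina chips by stalled E. coli RNA polymerase. Titrations had no input, 200 uM small-molecule ligand, or an oligonucleotide input, and steps lasted 0.8–1.5 h (lowest) to 10–20 min (highest).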

[1] = Eterna round: R95, input ligand: FMN 200 uM
[2] = Eterna round: R95, input ligand: microRNA oligo, concentration not stated
[3] = Eterna round: R95, input ligand: none
[4] = input ligand: microRNA oligo, concentration not stated

Row | Sequence | apparent KD of MS2 coat protein [2] | apparent KD of MS2 coat protein (input ligand: FMN 200 uM) | apparent KD of MS2 coat protein (input ligand: none) | further results
1 | CUUAGACAUGAGGAUCACCCAUGUGAGGAUAUGAUGCGGGAGACGAAAAGUUUCAGCAUCAGAAGGCACAUAUG [mod of disincluded 3 v.3 (my top score 87 - 34% A's)] (puzzle: Exclusion 1) | 175 nM |  |  | apparent KD of MS2 coat protein [1]: 349 nM; apparent KD of MS2 coat protein [3]: 172 nM
2 | CUUAGCCUAAAAUCACGCAAGCCUUUUGCUUGUCUUAAGACAUGAGGAUCACCCAUGUCCGGGCUGAACUUAUGGAA [Geanon] (puzzle: Sensor v3, turn-off variant 2) | 33.3 nM |  |  | apparent KD of MS2 coat protein [1]: 17.4 nM; apparent KD of MS2 coat protein [3]: 16.6 nM
3 | CUUAGUUGGUAAGGAUAUCCUACAUUAUUCUGACCCGUGCAAGCUACAUGAGGAUCACCCAUGUGGGAGAAGGUGCGUUAAUGU [Design 6] (Eterna round: R96, puzzle: Exclusion NG 2) |  | 18.4 nM | 20.1 nM | apparent KD of MS2 coat protein [4]: 12.9 nM
4 | CUUCACCCACCAGAGCACACCCACAUACCUGCUCAGGUGACAUGAGGAUCACCCAUGUUUUUUGCCCGUCUUAUCUU [Tilevere] (puzzle: Sensor v3, turn-off variant 2) | 144 nM |  |  | apparent KD of MS2 coat protein [1]: 31.6 nM; apparent KD of MS2 coat protein [3]: 33.9 nM
5 | CUUCACCCACCAGAGCUCACCCACAAACCUGCCCUGGUGACAUGAGGAUCACCCAUGUUUUUUGCCCGUCUUAUCUU [Diletibi] (puzzle: Sensor v3, turn-off variant 2) | 241 nM |  |  | apparent KD of MS2 coat protein [1]: 42 nM; apparent KD of MS2 coat protein [3]: 46.8 nM
6 | CUUCACCCACCUGAGCUCACCCACAUACCUGCUCAGGUGACAUGAGGAUCACCCAUGUUUUUUGCCCGUCUUAUCUU [Soteonge] (puzzle: Sensor v3, turn-off variant 2) | 229 nM |  |  | apparent KD of MS2 coat protein [1]: 39.4 nM; apparent KD of MS2 coat protein [3]: 45.6 nM
7 | CUUCAGUAAGGAUAUCAGCUUAGGAGGUUGGUAAUGAGAGCUGAGAAGGUACAUGAGGAUCACCCAUGUUAGUU [JL Zatite mod 8] (puzzle: Exclusion 4) | 17 nM |  |  | 
8 | CUUCGGGCAGGAUAUGCUGUUUGUGACAUGAGGAUCACCCAUGUGAUGCAGUUUGGGUGUGCAGAAGGGCCUGAGU [JR_E5_Sub031] (puzzle: Exclusion 5) | 43.7 nM |  |  | 
9 | CUUGACUGAGGAUAUACGAGAUCGAAAGAUCGGCGAUCCCUACAUGAGGAUCACCCAUGUAGAAGGCAGUCAAG [Mod 14 - Jieux - Exclusion 2] (Eterna round: R97, puzzle: Exclusion 2) |  | 70.6 nM | 17 nM | 
10 | CUUGCACGACGAGGAUAUCGUAAACAUGAGGAUCACCCAUGUAGGUGGCGUCGUCCUCUAUCUUGCGAGAAGGCGUAAAAUUAA [Begeeda] (Eterna round: R96, puzzle: Exclusion NG 2) |  | 82.6 nM | 39.4 nM | apparent KD of MS2 coat protein [4]: 47.1 nM
11 | CUUGUGUUAGGAUAUGUUAAGCCGCCACCUGGCGGAUCAGGACAGAAGGAACAUGAGGAUCACCCAUGUAAAAG [Inenxele] (Eterna round: R97, puzzle: Exclusion 4) |  | 55.1 nM | 105 nM | 
12 | CUUGUUUAUGUAGGAUAUGCCUGGCGUGCCUUUGCAGAAGGACAUGAGGAUCACCCAUGUAUUGCGGUCUGCGUUCAGAUCGCG [salish99_ExNG1_r4_043] (Eterna round: R96, puzzle: Exclusion NG 1) |  | 39 nM | 34.9 nM | apparent KD of MS2 coat protein [4]: 25.8 nM
13 | CUUUACAAGCUAAGAUCCUACAUGAGGAUCACCCAUGUGGUCCGGUGACGUGAGUCACCGGACUUAGCUCGUCUUGA [salish99_S_TOV1_R5_093] (Eterna round: R97, puzzle: Sensor, turn-off variant 1) |  | 32 nM | 39.1 nM | 
14 | CUUUAGUGAGGAUAUCAGUAGUAAUACAAUAGUAUUAUUACUGAGAAGGCACAUGAGGAUCACCCAUGUUCCUC [Mat - Exclusion 4 - Mod of Omei - D81] (puzzle: Exclusion 4) | 26.9 nM |  |  | 
15 | CUUUCGUGAGGAUAUCAGUAGUAAUAAAAUAAAAUUACUACUGAGAAGGCACAUGAGGAUCACCCAUGUUCCUC [salish99_ex3_r3_098] (puzzle: Exclusion 4) | 23.5 nM |  |  | 
16 | CUUUCGUGAGGAUAUGUGGCUUCGAAAAUGAGAUCGAGGCUACAGAAGGCACAUGAGGAUCACCCAUGUUCCUC [salish99_ex4_r4_215] (Eterna round: R97, puzzle: Exclusion 4) |  | 400 nM | 35.6 nM | 
17 | CUUUGCACGCUGCGGUCCUACAUGAGGAUCACCCAUGUGGUCUGGUGGCGUGGGUCGCCGGACUUGGCUCGUCUUGG [salish99_S_TOV1_R5_042] (Eterna round: R97, puzzle: Sensor, turn-off variant 1) |  | 15.1 nM | 15.7 nM | 
18 | CUUUUGUGAGGAUAUCAGUAGUAAAUUAAUAAAAUUACUACUGAGAAGGCACAUGAGGAUCACCCAUGUUCCUU [Mat - Exclusion 4 - Mod of Salish - D64] (puzzle: Exclusion 4) | 14.9 nM |  |  | 
19 | CUUUUGUGAGGAUAUCAGUAGUAGAACAAUAGUACUACUACUGAGAAGGCACAUGAGGAUCACCCAUGUUCUUC [Fiskers Ex 4 Super stable 44 mod 5] (puzzle: Exclusion 4) | 27.8 nM |  |  | 
20 | CUUUUGUGAGGAUAUCAGUAGUAUAUAAAUAAAAUUACUACUGAGAAGGCACAUGAGGAUCACCCAUGUUCCUC [salish99_ex3_r3_076] (puzzle: Exclusion 4) | 35.5 nM |  |  | 
21 | CUUUUGUGAGGAUAUGGUCUCGAUGACAUGAGGAUCACCCAUGUAACAUGGGACUUGUGACUAGAAGGCACUAACG [JR_Ex5_Sub024] (Eterna round: R97, puzzle: Exclusion 5) |  | 22.6 nM | 16.4 nM | 
22 | CUUUUGUGAGGAUAUUAGUAGUAAAUAAAUAAAAUUACUACUGAGAAGGCACAUGAGGAUCACCCAUGUUCCUU [salish99_ex4_r3_067] (puzzle: Exclusion 4) | 14 nM |  |  | 
23 | CUUUUGUGAGGAUAUUAGUAGUAAAUAAAUAAAAUUACUACUGAGAAGGUACAUGAGGAUCACCCAUGUUCCUC [salish99_ex4_r3_044] (puzzle: Exclusion 4) | 15.8 nM |  |  | 
24 | CUUUUGUGAGGAUAUUAGUAGUAAAUAAAUAAAAUUAUUACUGAGAAGGCACAUGAGGAUCACCCAUGUUCCUC [salish99_ex4_r3_062] (Eterna round: R96, puzzle: Exclusion 4) |  | 533 nM | 36.6 nM | apparent KD of MS2 coat protein [4]: 32.9 nM
25 | CUUUUGUGAGGAUAUUAGUAGUAAAUAAAUAAAAUUAUUACUGAGAAGGCACAUGAGGAUCACCCAUGUUCCUC [salish99_ex4_r3_062] (puzzle: Exclusion 4) | 35.1 nM |  |  | 
26 | CUUUUGUGAGGAUAUUAGUAGUAAAUAAUUAAAAUUAUUACUGAGAAGGCACAUGAGGAUCACCCAUGUUCCUC [Salish 062 v15] (Eterna round: R97, puzzle: Exclusion 4) |  | 752 nM | 42.9 nM | 
27 | CUUUUUGUCGAGGAUAUGCACCAGCUCACUGACGCAGAAGGCGACACAUGAGGAUCACCCAUGUCAGUUCGCGU [salish99_ex6_r004_433] (Eterna round: R97, puzzle: Exclusion 6) |  | 35.3 nM | 20 nM | 

Reference: the supplement of paper PMC9170038
